Tests used:
[1] = target: peptide of the epitope site of 102-10 (Homo sapiens, UniProt P02675); assay: Verification of affinity by SPR (Biacore T200, multi cycle kinetics); type: binding; settings: for Dissociation rate constant kd: immobilized epitope peptide of 102-10; for Binding rate constant ka: immobilized epitope peptide of 102-10, antibody 48.875-1500 nM; for Kd: immobilized epitope peptide of 102-10, reference for relative affinity
Protocol: When an antigen is insoluble, although SPR is not suitable for verifying the affinity of the antigen, measurement by SPR was performed as reference for comparing relative affinity levels between antibodies.
The affinity of an antibody to insoluble fibrin was calculated based on analysis by surface plasmon resonance (SPR) using Biacore T200 (GE Healthcare) to evaluate the intermolecular interaction of the antibody. […] The immobilization was performed using an amine coupling kit (BR-1000-50, GE Healthcare) and setting the […] to 90 RU. Subsequently, an antigen-antibody reaction was performed using an antibody diluted to […], 93.75, 187.5, 375, 750, and 1500 nM with 1× HBS-N buffer by a multi cycle kinetics method under conditions shown in Table 1. After the measurement, analysis using BIA evaluation (GE Healthcare) was performed to determine the KD value, kd value, and ka value.

[2] = test system: triple mutant mouse-derived pancreatic cancer cell line; settings: Alexa 647-labeled antibody, 300 μg per mouse, tail vein, imaging 1 h to day 7, FIG. 2
Protocol: Accordingly, in vivo imaging was performed using the cell line. […] The pancreatic cancer cell line was cultured in 500 mL of a RPMI 1640 (FUJIFILM Wako Pure Chemical Corporation) medium supplemented with 100 mL of inactivated fetal bovine serum (FBS, Gibco) and 10 mL of 100 units/mL Penicillin, 100 μg/mL Streptomycin, and 250 ng/mL Amphotericin B (FUJIFILM Wako Pure Chemical Corporation). The culture supernatant was then removed. The cells were washed with PBS (Invitrogen), and 2 mL of Trypsin-EDTA [0.25% (w/v) trypsin-1.0 mmol/L ethylenediaminetetraacetic acid-4Na Solution with Phenol Red, FUJIFILM Wako Pure Chemical Corporation] was added thereto. The cells were detached by pipetting and placed in a 15-mL tube (Corning Incorporated), followed by centrifugation with a centrifuge (Universal centrifuge 5800, KUBOTA Corporation Co., Ltd.) at 270×g for 3 minutes at 4° C. The supernatant was removed, and the precipitate was resuspended in 10 mL of PBS, followed by centrifugation at 270×g for 3 minutes at 4° C. After repeating this procedure three times, the concentration was adjusted to 2×10^6 cells/50 μL with PBS, and the cell solution was subcutaneously injected to 5-week old BALB/c Slc nu/nu mice (Japan SLC, Inc.) at 50 μL per mouse from the left foot base. […] The control used was InVivoMAb Mouse IgG1 Isotype control (Bio X Cell). […]

B1: 99-5: mAb (mouse IgG1) from clone 99-5, mouse immunized with peptide of SEQ ID NO: 26; insoluble fibrin-specific antibody; VH SEQ ID NO: 4, VL SEQ ID NO: 8 (antibody, V domains shown)
VH: MDWLWNLLFLMAAAQSIQAQIQLVQSGPELKKPGETVKISCKASGYTFTNYGMNWVKQAPGKGLKWMGWINTKIGEPTYAEEFKGRFAFSLETSASTAYLQINNLKNEDTATYFCARLLDYWGQGTTLTVSSAKTTPPSV
VL: METDTLLLWVLLLWVPGSTGDIVLTQSPASLAVSLGQRATISCRASESVDSYGNSFMHWYQQKPGQPPKLLIYRASNLESGIPARFSGSGSRTDFTLTINPVEADDVATYYCQQSNEDPRTFGGGTKLEIKRADAAPTVS
- Dissociation rate constant kd [1]: 0.000585 s⁻¹
- Binding rate constant ka [1]: 18000 M⁻¹ s⁻¹
- Kd [1]: 32.6 nM
- Accumulation of antibody to cancer [2]: high

B2: 1101: mAb (mouse IgG1) from clone 1101, mouse immunized with peptide of SEQ ID NO: 27; insoluble fibrin-specific antibody; VH SEQ ID NO: 12, VL SEQ ID NO: 16 (antibody, V domains shown)
VH: MECNWILPFILSVISGVYSEVQLQQSGTVLARPGASVKMSCKASGFSFTSYWMHWVKQRPGQGLEWIGAIYPGNSDTRNNQKFKGKAKLTAVTSANTAYMELSSLTNEDSAVYYCTRKAHYGNYGFAYWGQGTLVTVSAA
VL: MSGHSRNMKFPSQLLLFLLFRITGIICDIQMTQSSSYLSVSLGGRVTITCKASDHINNWLAWYQQKPGNAPRLLISGATSLETGVPSRFSGSGSGKDYTLSITSLQTEDVATYYCQQYWSTPLTFGAGTKLELKRADAAP
- Dissociation rate constant kd [1]: 0.00325 s⁻¹
- Binding rate constant ka [1]: 93700 M⁻¹ s⁻¹
- Kd [1]: 66.8 nM
- Accumulation of antibody to cancer [2]: high

Source: patent US11311626B2, “Plasmin-cleavable anti-insoluble fibrin antibody-drug conjugate” (NATIONAL CANCER CENTER JAPAN, priority 2017, dated 2022)
